# Data reported in patent publication US12723255B2, “Herbicide tolerance genes and methods of use thereof” (priority 2014, dated 2026).
# How the values were obtained:
# [1] = test system: F1 hybrid maize plants; assay: trait efficacy field trial, 2,4-D pressure screening, F1 hybrid; assay type: in vivo; settings: crop injury percentage; for 4X 2,4-D CIPV4 / 4X 2,4-D CIPV8: 4 lb ae/acre at VE-V2, V4, V8; for 8X 2,4-D CIPV4 / 8X 2,4-D CIPV8: 8 lb ae/acre at VE-V2, V4, V8; for 16X 2,4-D CIPV4 / 16X 2,4-D CIPV8: 16 lb ae/acre at VE-V2, V4, V8
# Procedure: Separate trait efficacy field trials for quizalofop-P and 2,4-D pressure screening were conducted at one location each with F1 hybrid transgenic plants produced by crossing an inbred plant containing maize event MON89034 with an R1 plant containing MON-HT1, MON-HT2, MON-HT8, MON-HT9, and MON-HT10 with and without operably linked CTP sequences. Transgenic F1 hybrid plants containing maize events NK603×MON89034 were used for comparison as a control.
# Three herbicide treatments were used in the trait efficacy field trial for 2,4-D tolerance: (1) 2,4-D amine at 4 lb ac/acre (4×) plus 0.25% v/v NIS applied to VE-V2 followed by V4 followed by V8; (2) 2,4-D amine at 8 lb ac/acre (8×) plus 0.25% v/v NIS applied to VE-V2 followed by V4followed by V8 maize; or (3) 2,4-D amine at 16 lb ac/acre (16×) plus 0.25% v/v NIS applied to VE-V2 followed by V4 followed by V8. Plots were visually rated as above.
# The injury rating for the control plants after all 2,4-D applications ranged from 80% to 96.25%. At the highest rate of 2,4-D (16×) applied through V8, the plants containing MON-HT1 or MON-HT2 operably linked to any of the three CTPs (A, B, or C) had better tolerance than plants containing MON-HT1 or MON-HT2 not operably linked to a CTP. Plants containing MON-HT1, MON-HT2, or MON-HT8 with or without an operably linked CTP had better tolerance to 2,4-D at all applications tested compared to plants containing either MON-HT9 or MON-HT10 with an operably linked ‘A’ CTP. Over the range of 2,4-D applications the relative ranking of tolerance was: plants containing MON-HT1 had better tolerance than plants containing MON-HT2 which were in turn better than plants containing MON-HT8. […] Error was calculated using LSD (0.05).
# [2] = assay type: biochemical; settings: for temperature sensitivity compared with the wild-type enzyme: substrate 2,4-D, lower T1/2 than wild-type
# Procedure: To analyze these engineered proteins for activity in higher temperatures, the in vitro enzyme assay in Example 1 was modified to specify pre-heating all of the assay components to the desired temperature for 5 minutes before combining the components and then maintaining the reaction at the desired temperature for the duration of the reaction. To normalize the assay measurements, quizalofop-P was used as the substrate for the reaction and enzyme activity was normalized based on the 25° C. readings. Using these parameters, the temperature at which the enzyme activity was half of maximum (T1/2) was calculated. The T1/2 for MON-HT55 was calculated to be 29° C., and the T1/2 for wild-type RdpA was calculated to be 38° C. (FIG. 2A).
# Enzyme activity over a range of temperatures was analyzed in-depth for MON-HT1, MON-HT2, MON-HT7, and MON-HT8. These assays were conducted as described above. Quizalofop-P or 2,4-D was used as the substrate for these reactions and activity was normalized based on the activity of the wild-type enzyme at 25° C. The activity curves obtained are presented in FIG. 2B (with quizalofop-P as the substrate) and FIG. 2C (with 2,4-D as the substrate). Using quizalofop-P as the substrate, MON-HT55 was the most temperature sensitive, with a T1/2 of 29° C. […] MON-HTI was slightly less temperature sensitive, with a T1/2 about 1° C. higher than the wild-type enzyme.
# [3] = test system: transgenic maize plants; assay: trait efficacy field trials with homozygous inbred plants, CTP evaluation; assay type: in vivo; settings: crop injury percentage
# Description: To evaluate different chloroplast targeting peptides (CTP), plant transformation vectors were constructed, each comprising a recombinant DNA molecule optimized for monocot expression and encoding MON-HTI (SEQ ID NO: 16), MON-HT2 (SEQ ID NO:20), and MON-HT8 (SEQ ID NO:39), MON-HT9 (SEQ ID NO:42), or MON-HT10 (SEQ ID NO:45). The vectors were created using the same combination of promoter, leader, intron, and 3′-UTR, but with one of three separate CTPs (A, B, or C) or without a CTP operably linked to the protein-coding sequence. The DNA constructs were used to transform immature maize (LH244) embryos using Agrobacterium tumifaciens and standard methods known in the art. Regenerated RO transgenic plantlets were grown in the green house. The R0 plants were selfed to generate R1 homozygous seed. The R0 plants were also used as the male to cross with inbred plants containing maize event MON89034 to generate segregating F1 hybrid seed for trait efficacy field trials.
# Separate trait efficacy field trials for quizalofop-P and 2,4-D were conducted at two locations each with the homozygous inbred transgenic plants (R2 or R4 generation). In these field trials, one of two herbicide treatments was used: (1) quizalofop-P (Assure II) at 0.16 lb ai/acre (2×) plus 0.25% v/v non-ionic surfactant (NIS) applied at V4 growth stage followed by the same at V8 growth stage; or (2) 2,4-D amine at 2 lb ae/acre (2×) plus 0.25% v/v non-ionic surfactant (NIS) applied to V4 followed by V8. Injury ratings (crop injury percentage at V4 (CIPV4) or V8 (CIPV8)) were taken 10 to 14 days after the V4 and V8 applications. Error was calculated using LSD (0.05).
# [4] = CTP A, 0.16 lb ai/acre at V4, V8, LSD (0.05) = 1.45
# [5] = CTP A, 0.16 lb ai/acre at V4, V8, LSD (0.05) = 2.2
# [6] = CTP A, 2 lb ae/acre at V4, V8, LSD (0.05) = 0.95
# [7] = CTP A, 2 lb ae/acre at V4, V8, LSD (0.05) = 1.6
# [8] = CTP B, 0.16 lb ai/acre at V4, V8
# [9] = CTP C, 0.16 lb ai/acre at V4, V8
# [10] = no CTP, 0.16 lb ai/acre at V4, V8
molecule,measurement,setting,value
"MON-HT8: engineered oxygenase protein, amino acid sequence SEQ ID NO:37 (protein) MHAALTPLTNKYRFIDVQPLTGVLGAEITGVDLREPLDDSTWNEILDAFHTYQVIYFPGQAITNEQHIAFSRRFGPVDPVPILKSIEGYPEVQMIRREANESGRVIGDDWHTDSTFLDAPPAAVVMRAIEVPEYGGDTGFLSMYSAWETLSPTMQATIEGLNVVHSATKVFGSLYQATNWRFSNTSVKVMDVDAGDRETVHPLVVTHPVTGRRALYCNQVYCQKIQGMTDAESKSLLQFLYEHATKFDFTCRVRWKKDQVLVWDNLCTMHRSVPDYGNAFRYLTRTTVAGDKPSR","4X 2,4-D CIPV4",[1]; CTP A,7.5
same,"4X 2,4-D CIPV8",[1]; CTP A,5
same,"8X 2,4-D CIPV4",[1]; CTP A,10
same,"8X 2,4-D CIPV8",[1]; CTP A,12.5
same,"16X 2,4-D CIPV4",[1]; CTP A,15
same,"16X 2,4-D CIPV8",[1]; CTP A,30
same,"4X 2,4-D CIPV4",[1]; CTP B,5
same,"4X 2,4-D CIPV8",[1]; CTP B,7.5
same,"8X 2,4-D CIPV4",[1]; CTP B,10
same,"8X 2,4-D CIPV8",[1]; CTP B,27.5
same,"16X 2,4-D CIPV4",[1]; CTP B,10
same,"16X 2,4-D CIPV8",[1]; CTP B,20
same,"4X 2,4-D CIPV4",[1]; CTP C,10
same,"4X 2,4-D CIPV8",[1]; CTP C,7.5
same,"8X 2,4-D CIPV4",[1]; CTP C,10
same,"8X 2,4-D CIPV8",[1]; CTP C,17.5
same,"16X 2,4-D CIPV4",[1]; CTP C,17.5
same,"16X 2,4-D CIPV8",[1]; CTP C,25
same,"T1/2, temperature at which the enzyme activity was half of maximum",[2],41 °C
same,temperature sensitivity compared with the wild-type enzyme,[2],slightly more temperature sensitive
same,2X Quizalofop-P CIPV4,[3]; [4],0
same,2X Quizalofop-P CIPV8,[3]; [5],1.25
same,"2X 2,4-D CIPV4",[3]; [6],1.75
same,"2X 2,4-D CIPV8",[3]; [7],1.25
same,2X Quizalofop-P CIPV4,[3]; [8],0.75
same,2X Quizalofop-P CIPV8,[3]; [8],2.5
same,"2X 2,4-D CIPV4","[3]; CTP B, 2 lb ae/acre at V4, V8",0
same,"2X 2,4-D CIPV8","[3]; CTP B, 2 lb ae/acre at V4, V8",1.25
same,2X Quizalofop-P CIPV4,[3]; [9],0
same,2X Quizalofop-P CIPV8,[3]; [9],1.25
same,"2X 2,4-D CIPV4","[3]; CTP C, 2 lb ae/acre at V4, V8",1.25
same,"2X 2,4-D CIPV8","[3]; CTP C, 2 lb ae/acre at V4, V8",0
"MON-HT2: engineered oxygenase protein, amino acid sequence SEQ ID NO:18 (protein) MHAALTPLTNKYRFIDVQPLTGVLGAEITGVDLREPLDDSTWNEILDAFHTYQVIYFPGQAITNEQHIAFSRRFGPVDPVPLLKSIEGYPEVQMIRREANESSRVIGDDWHSDSTFLDAPPAAVVMRAIEVPEYGGDTGFLSMYSAWETLSPTMQATIEGLNVVHSATKVFGSLYQATNWRFSNTSVKVMDVDAGDRETVHPLVVTHPVTGRRALYCNQVYCQKIQGMTDAESKSLLQFLYEHATKFDFTCRVRWKKDQVLVWDNLCTMHRAAPDYAGKFRYLTRTTVAGDKPSR","4X 2,4-D CIPV4",[1]; CTP A,5
same,"4X 2,4-D CIPV8",[1]; CTP A,5
same,"8X 2,4-D CIPV4",[1]; CTP A,10
same,"8X 2,4-D CIPV8",[1]; CTP A,7.5
same,"16X 2,4-D CIPV4",[1]; CTP A,10
same,"16X 2,4-D CIPV8",[1]; CTP A,20
same,"4X 2,4-D CIPV4",[1]; CTP B,5
same,"4X 2,4-D CIPV8",[1]; CTP B,5
same,"8X 2,4-D CIPV4",[1]; CTP B,5
same,"8X 2,4-D CIPV8",[1]; CTP B,10
same,"16X 2,4-D CIPV4",[1]; CTP B,10
same,"16X 2,4-D CIPV8",[1]; CTP B,25
same,"4X 2,4-D CIPV4",[1]; CTP C,10
same,"4X 2,4-D CIPV8",[1]; CTP C,15
same,"8X 2,4-D CIPV4",[1]; CTP C,10
same,"8X 2,4-D CIPV8",[1]; CTP C,10
same,"16X 2,4-D CIPV4",[1]; CTP C,15
same,"16X 2,4-D CIPV8",[1]; CTP C,20
same,"4X 2,4-D CIPV4",[1]; no CTP,7.5
same,"4X 2,4-D CIPV8",[1]; no CTP,7.5
same,"8X 2,4-D CIPV4",[1]; no CTP,17.5
same,"8X 2,4-D CIPV8",[1]; no CTP,42.5
same,"16X 2,4-D CIPV4",[1]; no CTP,25
same,"16X 2,4-D CIPV8",[1]; no CTP,45
same,"T1/2, temperature at which the enzyme activity was half of maximum",[2],46 °C
same,temperature sensitivity compared with the wild-type enzyme,[2],slightly more temperature sensitive
same,2X Quizalofop-P CIPV4,[3]; [4],0
same,2X Quizalofop-P CIPV8,[3]; [5],1.875
same,"2X 2,4-D CIPV4",[3]; [6],0.875
same,"2X 2,4-D CIPV8",[3]; [7],1.25
same,2X Quizalofop-P CIPV4,[3]; [8],0
same,2X Quizalofop-P CIPV8,[3]; [8],0
same,"2X 2,4-D CIPV4","[3]; CTP B, 2 lb ae/acre at V4, V8",0
same,"2X 2,4-D CIPV8","[3]; CTP B, 2 lb ae/acre at V4, V8",2.5
same,2X Quizalofop-P CIPV4,[3]; [9],0
same,2X Quizalofop-P CIPV8,[3]; [9],2
same,"2X 2,4-D CIPV4","[3]; CTP C, 2 lb ae/acre at V4, V8",0
same,"2X 2,4-D CIPV8","[3]; CTP C, 2 lb ae/acre at V4, V8",1.25
same,2X Quizalofop-P CIPV4,[3]; [10],1.25
same,2X Quizalofop-P CIPV8,[3]; [10],3.5
same,"2X 2,4-D CIPV4","[3]; no CTP, 2 lb ae/acre at V4, V8",0
same,"2X 2,4-D CIPV8","[3]; no CTP, 2 lb ae/acre at V4, V8",2.5
